The test has as its target T1, human TIGIT-Fc (human, UniProt Q495A1).
T1 chain: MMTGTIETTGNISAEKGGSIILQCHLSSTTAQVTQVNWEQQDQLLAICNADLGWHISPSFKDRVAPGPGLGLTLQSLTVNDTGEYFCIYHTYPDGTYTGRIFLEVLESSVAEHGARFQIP
The experiment in a line: BLI.

Where a chain is given by its changes, count along the chain named.

B1: ADI-27301 Fab (antibody, V domains shown)
VH: QLQLQESGPGLVKPSETLSLTCTVSGGSISSSSYYWGWIRQPPGKGLEWIGSIYYSGSTYYNPSLKSRVTISVDTSKNQFSLKLSSVTAADTAVYYCAREAGRGTTGLLFDYWGQGTLVTVSS
VL: DIQMTQSPSTLSASVGDRVTITCRASQSISSWLAWYQQKPGKAPKLLIYKASSLESGVPSRFSGSGSGTEFTLTISSLQPDDFATYYCQQYGILPRTFGGGTKVEIK
The Kd is the equilibrium constant for the complex coming apart. Read a high Kd as lower affinity. B1 yielded a Kd of 8.01 nM.

B2: ADI-30311 Fab (antibody, V domains shown)
VH: B1 VH with S30A, S33V, Y60W, G104T, T105G
VL: B1 VL
B2 returned a Kd of 0.807 nM.

B3: ADI-27278 Fab (antibody, V domains shown)
VH: EVQLVESGGGLVQPGGSLRLSCAASGFTFSSYSMNWVRQAPGKGLEWVSYISGSSSTIYYADSVKGRFTISRDNAKNSLYLQMNSLRAEDTAVYYCARHRIADSPSRAFDIWGQGTMVTVSS
VL: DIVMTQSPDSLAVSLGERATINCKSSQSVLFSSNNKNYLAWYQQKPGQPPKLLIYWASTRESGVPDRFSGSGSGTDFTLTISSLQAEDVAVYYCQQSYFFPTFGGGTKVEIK
In the case of B3, the Kd came out at 10.9 nM.

B4: ADI-27243 Fab (antibody, V domains shown)
VH: QLQLQESGPGLVKPSETLSLTCTVSGGSISSSRYYWGWIRQPPGKGLEWIGSIYYSGSTYYNPSLKSRVTISVDTSKNQFSLKLSSVTAADTAVYYCARDGLYHTPEYFQHWGQGTLVTVSS
VL: EIVLTQSPATLSLSPGERATLSCRASQSVSSYLAWYQQKPGQAPRLLIYDASNRATGIPARFSGSGSGTDFTLTISSLEPEDFAVYYCQQRFAFPYTFGGGTKVEIK
For B4, the Kd is 9.47 nM.

B5: ADI-30302 Fab (antibody, V domains shown)
VH: B4 VH with S30G, R33Q, Y55R, S58G
VL: B4 VL
In turn, B5 had a dissociation constant (Kd) of 0.329 nM.

B6: ADI-30336 Fab (antibody, V domains shown)
VH: B4 VH
VL: B4 VL with F94H
As to B6, the Kd was determined as 0.566 nM.

B7: ADI-30268 Fab (antibody, V domains shown)
VH: QVQLVQSGAEVKKPGASVKVSCKASGYTFGSYYMGWVRQAPGQGLEWMGIIDPSGGRTSYARKFQGRVTMTRDTSTSTVYMELSSLRSEDTAVYYCARARTPSSWPYGMDVWGQGTTVTVSS
VL: DIQMTQSPSSLSASVGDRVTITCRASQSINSYLNWYQQKPGKAPKLLIYAASSLQSGVPSRFSGSGSGTDFTLTISSLQPEDFATYYCQQSLLTPFTFGGGTKVEIK
Consider B7, for which the Kd was found to be 0.571 nM.

B8: ADI-27238 Fab (antibody, V domains shown)
VH: B7 VH with G30T, G35S, D52N, R57S, R62Q, T101Y
VL: B7 VL
The molecule B8 returned a Kd of 13.8 nM.

B9: ADI-30263 Fab (antibody, V domains shown)
VH: B7 VH with G30L, G35N, R62Q, T101Y, M109T
VL: B7 VL
Take B9: the Kd is 0.795 nM.

B10: ADI-30293 Fab (antibody, V domains shown)
VH: EVQLVESGGGLVQPGGSLRLSCAASGFTFSSYSMNWVRQAPGKGLEWVSYISSSGTINYADSVKGRFTISRDNAKNSLYLQMNSLRAEDTAVYYCARHRIADSPSRAFDIWGQGTMVTVSS
VL: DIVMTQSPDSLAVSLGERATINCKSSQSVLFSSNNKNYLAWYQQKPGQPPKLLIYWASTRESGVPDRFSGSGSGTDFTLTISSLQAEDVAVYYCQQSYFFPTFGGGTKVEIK
Consider B10, for which the Kd worked out at 3.49 nM.

B11: ADI-30272 Fab (antibody, V domains shown)
VH: QVQLVQSGAEVKKPGASVKVSCKASGYTFTEYYMHWVRQAPGQGLEWMGIISPSAGSTSYAQKFQGRVTMTRDTSTSTVYMELSSLRSEDTAVYYCARDHDIAAAGRLADYWGQGTLVTVSS
VL: DIQMTQSPSSVSASVGDRVTITCRASQGISSWLAWYQQKPGKAPKLLISAASSLQSGVPSRFSGSGSGTDFTLTISSLQPEDFATYYCQQAVILPITFGGGTKVEIK
B11 registered a Kd of 1.19 nM.

B12: ADI-30278 Fab (antibody, V domains shown)
VH: B11 VH with S59K, A103R, A104L
VL: B11 VL
Regarding B12, the Kd was determined as 0.243 nM.

B13: ADI-30286 Fab (antibody, V domains shown)
VH: EVQLLESGGGLVQPGGSLRLSCAASGFTFGPYGMSWVRQAPGKGLEWVSAISGSGASTWYADSVKGRFTISRDNSKNTLYLQMNSLRAEDTAVYYCAKDPGTHYSGYYYIWRYWGQGTLVTVSS
VL: EIVMTQSPATLSVSPGERATLSCRASQSVSSNLAWYQQKPGQAPRLLIYSASTRATGIPARFSGSGSGTEFTLTISSLQSEDFAVYYCQQYVPHPPFTFGGGTKVEIK
In turn, B13 showed a Kd of 0.436 nM.

B14: ADI-30283 Fab (antibody, V domains shown)
VH: B13 VH with G30S, A50S, A56G, S57R, W59Y, H103D, Y104S
VL: B13 VL
Regarding B14, the affinity, expressed as Kd, was 0.553 nM.

B15: ADI-27291 Fab (antibody, V domains shown)
VH: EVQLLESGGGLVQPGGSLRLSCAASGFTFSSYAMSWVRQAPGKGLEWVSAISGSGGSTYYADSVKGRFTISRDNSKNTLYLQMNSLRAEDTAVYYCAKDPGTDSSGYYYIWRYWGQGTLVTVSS
VL: B13 VL
B15 displayed an equilibrium dissociation constant (Kd) of 6.48 nM.

B16: ADI-30288 Fab (antibody, V domains shown)
VH: B13 VH with Y60H, H103D, Y104S, S105T
VL: B13 VL
B16 gave a Kd of 0.547 nM.
